Assay [1] deals with SNAP-25 peptide comprising amino acids 134-206 of SEQ ID NO: 5 (human). Kind of assay: SPR (BIAcore 3000), peptide amine-coupled to CM5 chip, antibody as analyte, 1:1 fit. (Surface plasmon resonance follows binding to a sensor surface in real time, without labels.)
Assay [2] deals with SNAP-25 peptide comprising amino acids 134-197 of SEQ ID NO: 5 (human). The assay is described as above.
Assay [3] deals with FGFR3 of SEQ ID NO: 25 (Homo sapiens (Human)) (UniProt P22607). As to the kind of experiment: cell-based or functional assay.
FGFR3 of SEQ ID NO: 25 (Homo sapiens (Human)), sequence (P22607 other isoform, or with tags, fused parts or gaps limits assumed): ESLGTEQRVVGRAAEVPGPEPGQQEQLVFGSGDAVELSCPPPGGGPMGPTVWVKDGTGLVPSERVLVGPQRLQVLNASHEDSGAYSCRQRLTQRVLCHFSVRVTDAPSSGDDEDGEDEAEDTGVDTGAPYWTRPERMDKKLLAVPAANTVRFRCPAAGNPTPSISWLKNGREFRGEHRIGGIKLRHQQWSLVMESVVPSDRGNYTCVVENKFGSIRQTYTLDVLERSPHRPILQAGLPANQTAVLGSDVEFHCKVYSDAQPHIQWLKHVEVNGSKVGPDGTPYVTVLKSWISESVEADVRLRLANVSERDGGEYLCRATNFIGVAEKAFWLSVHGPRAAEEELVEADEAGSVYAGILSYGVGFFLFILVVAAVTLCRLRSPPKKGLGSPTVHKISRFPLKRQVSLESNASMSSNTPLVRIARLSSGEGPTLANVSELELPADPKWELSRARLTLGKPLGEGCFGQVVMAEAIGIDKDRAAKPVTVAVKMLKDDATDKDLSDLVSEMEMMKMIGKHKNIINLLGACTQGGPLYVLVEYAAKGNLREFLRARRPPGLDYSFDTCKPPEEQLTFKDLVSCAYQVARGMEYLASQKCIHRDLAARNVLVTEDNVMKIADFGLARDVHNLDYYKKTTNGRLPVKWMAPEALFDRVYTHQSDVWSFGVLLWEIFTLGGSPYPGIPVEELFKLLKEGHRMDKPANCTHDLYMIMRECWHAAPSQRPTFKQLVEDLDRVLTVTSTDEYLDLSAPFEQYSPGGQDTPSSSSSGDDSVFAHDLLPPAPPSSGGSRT

For “MC-6050 α-SNAP-25 mouse monoclonal antibody (Research & Diagnostic Antibodies)”, in assay [1], the Kd (in general, the constant that tells how readily two partners part at equilibrium) was found to be 19800 nM; the koff (commonly the rate constant with which the complex falls apart) was 0.00607 s⁻¹; the on-rate (kon) (commonly the second-order rate constant of association) is 306 M⁻¹ s⁻¹. In assay [2], this substance displayed a Kd of 0.497 nM, a koff of 0.000882 s⁻¹ and a kon of 1.78e+06 M⁻¹ s⁻¹.
Consider “MC-6053 α-SNAP-25 mouse monoclonal antibody (Research & Diagnostic Antibodies)”, for which, in assay [1], the Kd worked out at 240 nM and the koff is 2.56e-05 s⁻¹. Further, in assay [2], the Kd is 0.508 nM, the off-rate (koff) amounted to 0.00118 s⁻¹ and the on-rate (kon) is 2.32e+06 M⁻¹ s⁻¹.
In assay [3], “BoNT/A complex (from UniProt P0DPI0 2-1296) (enzyme)” registered an EC50 (nM) of SNAP-25 cleavage, Western blot, PC-12 cells transfected with FGFR3 of 0.263 nM and an EC50 (nM) of SNAP-25 cleavage, Western blot, SiMa cells transfected with FGFR3 of 0.0377 nM.

The values above are taken from patent US20120122128A1.
